Results: the supplement of paper PMC6757056
± gives the standard deviation of the averaged measurements.

B1: library; a variant is named by its letters at N, in order (parent)
chain: GCUGUCACCGGAAUACCAGCAUCGUCUUGAUGCCCUUGGAAGUCCGGUCUGAUGAGUCCNNNNNGGACGAAACAGC

Tests used:
[1] = variants of: B1; assay: FACS-Seq fitted mean relative fluorescence mCherry/BFP without ligand (log10 relative fluorescence); higher = higher reporter protein expression; conditions: HEK293T, ligand present: no
Description: (§1)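 Hammerhead (sTRSV) ribozyme switch libraries with a ligand aptamer grafted on stem I and a randomized N4-6 loop II, cloned into the 3' UTR of mCherry and transiently transfected into HEK293T cells; RNA-Seq 72 h post transfection with ligand added 1 h before transfection; RNA read count / plasmid DNA read count normalized to the non-cleaving sTRSVctl (x100), log10; sequences with >100 DNA reads. FACS-Seq: lentiviral library sorted into 6 bins after 48 h ligand, log-normal fit mean of mCherry/BFP scaled to controls. Printed sequences are partial switch sequences.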

[2] = variants of: B1; assay: normalized RNA/DNA level with ligand (relative to sTRSVctl = 100) (log10 (% of sTRSVctl)); higher = less ribozyme self-cleavage, higher mRNA level; conditions: ligand concentration (+) RNA-Seq: 5 mM, HEK293T, reporter: mCherry (pCS4076), ligand present: yes
Description: as §1

[3] = variants of: B1; assay: normalized RNA/DNA level without ligand (relative to sTRSVctl = 100) (log10 (% of sTRSVctl)); higher = less ribozyme self-cleavage, higher mRNA level; conditions: HEK293T, reporter: mCherry (pCS4076), ligand present: no
Description: as §1

[4] = variants of: B1; assay: FACS-Seq fitted mean relative fluorescence mCherry/BFP with ligand (log10 relative fluorescence); ligand concentration (+) FACS-Seq: 1 mM; higher = higher reporter protein expression; conditions: HEK293T, ligand present: yes
Description: as §1

Variant	FACS-Seq fitted mean (log10) [1]	normalized RNA/DNA level with ligand (log10) [2]	normalized RNA/DNA level without ligand (log10) [3]	FACS-Seq fitted mean (log10) [4]
GCUGUCACCGGAAUACCAGCAUCGUCUUGAUGCCCUUGGAAGUCCGGUCUGAUGAGUCCGAAAGGGACGAAACAGC [GAAAG]	1.046 ± 0.0068	1.96 ± 0.022	1.66 ± 0.044	1.08 ± 0.14
GCUGUCACCGGAAUACCAGCAUCGUCUUGAUGCCCUUGGAAGUCCGGUCUGAUGAGUCCGAAAUGGACGAAACAGC [GAAAU]	0.796 ± 0.0017	2.01 ± 0.038	1.71 ± 0.059	1.04 ± 0.097
GCUGUCACCGGAAUACCAGCAUCGUCUUGAUGCCCUUGGAAGUCCGGUCUGAUGAGUCCGAAACGGACGAAACAGC [GAAAC]	0.594 ± 0.018	1.97 ± 0.025	1.77 ± 0.072	0.621 ± 0.075
GCUGUCACCGGAAUACCAGCAUCGUCUUGAUGCCCUUGGAAGUCCGGUCUGAUGAGUCCGAAAAGGACGAAACAGC [GAAAA]	0.381 ± 0.0065	1.96 ± 0.033	1.3 ± 0.14	0.809 ± 0.014
GCUGUCACCGGAAUACCAGCAUCGUCUUGAUGCCCUUGGAAGUCCGGUCUGAUGAGUCCCAAAUGGACGAAACAGC [CAAAU]	0.264 ± 0.0079	1.946 ± 0.0043	1.6 ± 0.19	0.399 ± 0.048
GCUGUCACCGGAAUACCAGCAUCGUCUUGAUGCCCUUGGAAGUCCGGUCUGAUGAGUCCCAAAAGGACGAAACAGC [CAAAA]	0.173 ± 0.019	1.95 ± 0.029	1.31 ± 0.062	0.67 ± 0.071
GCUGUCACCGGAAUACCAGCAUCGUCUUGAUGCCCUUGGAAGUCCGGUCUGAUGAGUCCCAAACGGACGAAACAGC [CAAAC]	0.851 ± 0.024	1.92 ± 0.024	1.82 ± 0.054	0.833 ± 0.033
GCUGUCACCGGAAUACCAGCAUCGUCUUGAUGCCCUUGGAAGUCCGGUCUGAUGAGUCCAAAAAGGACGAAACAGC [AAAAA]	-0.362 ± 0.072	1.85 ± 0.075	1.11 ± 0.061	0.356 ± 0.066
GCUGUCACCGGAAUACCAGCAUCGUCUUGAUGCCCUUGGAAGUCCGGUCUGAUGAGUCCAAAACGGACGAAACAGC [AAAAC]	0.834 ± 0.057	1.944 ± 0.014	1.77 ± 0.066	0.873 ± 0.075
GCUGUCACCGGAAUACCAGCAUCGUCUUGAUGCCCUUGGAAGUCCGGUCUGAUGAGUCCAAAAGGGACGAAACAGC [AAAAG]	0.487 ± 0.041	1.971 ± 0.00093	1.66 ± 0.028	0.638 ± 0.13
GCUGUCACCGGAAUACCAGCAUCGUCUUGAUGCCCUUGGAAGUCCGGUCUGAUGAGUCCAAAAUGGACGAAACAGC [AAAAU]	0.464 ± 0.031	2.02 ± 0.028	1.68 ± 0.028	0.572 ± 0.045
GCUGUCACCGGAAUACCAGCAUCGUCUUGAUGCCCUUGGAAGUCCGGUCUGAUGAGUCCUAAACGGACGAAACAGC [UAAAC]	0.86 ± 0.034	1.978 ± 0.013	1.91 ± 0.096	0.924 ± 0.042
GCUGUCACCGGAAUACCAGCAUCGUCUUGAUGCCCUUGGAAGUCCGGUCUGAUGAGUCCUAAAGGGACGAAACAGC [UAAAG]	0.272 ± 0.033	2.041 ± 0.007	1.84 ± 0.11	0.497 ± 0.037
GCUGUCACCGGAAUACCAGCAUCGUCUUGAUGCCCUUGGAAGUCCGGUCUGAUGAGUCCUAAAAGGACGAAACAGC [UAAAA]	0.164 ± 0.019	1.99 ± 0.029	1.206 ± 0.0047	0.589 ± 0.038
GCUGUCACCGGAAUACCAGCAUCGUCUUGAUGCCCUUGGAAGUCCGGUCUGAUGAGUCCUAAAUGGACGAAACAGC [UAAAU]	0.912 ± 0.013	1.978 ± 0.0035	1.84 ± 0.13	0.9829 ± 0.0075
GCUGUCACCGGAAUACCAGCAUCGUCUUGAUGCCCUUGGAAGUCCGGUCUGAUGAGUCCUAACAGGACGAAACAGC [UAACA]	0.606 ± 0.025	1.99 ± 0.066	1.55 ± 0.053	0.813 ± 0.024
GCUGUCACCGGAAUACCAGCAUCGUCUUGAUGCCCUUGGAAGUCCGGUCUGAUGAGUCCCAACAGGACGAAACAGC [CAACA]	0.729 ± 0.046	1.98 ± 0.018	1.53 ± 0.0043	0.886 ± 0.058
GCUGUCACCGGAAUACCAGCAUCGUCUUGAUGCCCUUGGAAGUCCGGUCUGAUGAGUCCGAACAGGACGAAACAGC [GAACA]	0.228 ± 0.096	1.92 ± 0.025	1.6 ± 0.015	0.116 ± 0.032
